Measured values as given in doi:10.1101/2021.05.17.443621 (bioRxiv, 2021).

Biological target: T1, Stt3p (yeast (endogenous), UniProt P39007 1-718, N-glycan at N539)
T1 sequence (looked up): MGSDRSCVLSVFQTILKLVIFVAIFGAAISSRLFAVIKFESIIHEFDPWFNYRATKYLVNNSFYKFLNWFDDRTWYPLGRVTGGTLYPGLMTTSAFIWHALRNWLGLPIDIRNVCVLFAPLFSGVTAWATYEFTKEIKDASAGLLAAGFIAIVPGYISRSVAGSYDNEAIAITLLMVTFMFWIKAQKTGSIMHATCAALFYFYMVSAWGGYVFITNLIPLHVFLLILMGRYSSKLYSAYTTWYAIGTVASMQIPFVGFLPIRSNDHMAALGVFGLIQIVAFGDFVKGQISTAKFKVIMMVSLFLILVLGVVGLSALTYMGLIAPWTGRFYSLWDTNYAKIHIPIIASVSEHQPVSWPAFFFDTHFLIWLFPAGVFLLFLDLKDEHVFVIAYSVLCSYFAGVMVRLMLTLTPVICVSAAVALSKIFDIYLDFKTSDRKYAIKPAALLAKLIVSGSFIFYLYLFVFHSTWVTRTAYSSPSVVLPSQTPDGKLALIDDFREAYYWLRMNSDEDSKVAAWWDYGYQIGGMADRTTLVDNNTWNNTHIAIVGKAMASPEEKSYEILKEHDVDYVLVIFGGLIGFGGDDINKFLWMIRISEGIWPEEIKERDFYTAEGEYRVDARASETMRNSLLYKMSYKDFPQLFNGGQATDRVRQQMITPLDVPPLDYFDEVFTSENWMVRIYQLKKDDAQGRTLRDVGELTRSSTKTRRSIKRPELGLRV
Assay: cryo-EM structure

- binding result: binds
B1: Ost6p (natural protein, yeast, UniProt Q03723 25-332, looked up)
chain: TASHNIDDILQLKDDTGVITVTADNYPLLSRGVPGYFNILYITMRGTNSNGMSCQLCHDFEKTYHAVADVIRSQAPQSLNLFFTVDVNEVPQLVKDLKLQNVPHLVVYPPAESNKQSQFEWKTSPFYQYSLVPENAENTLQFGDFLAKILNISITVPQAFNVQEFVYYFVACMVVFIFIKKVILPKVTNKWKLFSMILSLGILLPSITGYKFVEMNAIPFIARDAKNRIMYFSGGSGWQFGIEIFSVSLMYIVMSALSVLLIYVPKISCVSEKMRGLLSSFLACVLFYFFSYFISCYLIKNPGYPIVF
